From paper doi:10.1101/2024.09.06.611148

Molecular target: Alexa-647 NHS-labelled tubulin (UniProt P02550)
Test: MST

Chain of Alexa-647 NHS-labelled tubulin (P02550 whole entry, looked up): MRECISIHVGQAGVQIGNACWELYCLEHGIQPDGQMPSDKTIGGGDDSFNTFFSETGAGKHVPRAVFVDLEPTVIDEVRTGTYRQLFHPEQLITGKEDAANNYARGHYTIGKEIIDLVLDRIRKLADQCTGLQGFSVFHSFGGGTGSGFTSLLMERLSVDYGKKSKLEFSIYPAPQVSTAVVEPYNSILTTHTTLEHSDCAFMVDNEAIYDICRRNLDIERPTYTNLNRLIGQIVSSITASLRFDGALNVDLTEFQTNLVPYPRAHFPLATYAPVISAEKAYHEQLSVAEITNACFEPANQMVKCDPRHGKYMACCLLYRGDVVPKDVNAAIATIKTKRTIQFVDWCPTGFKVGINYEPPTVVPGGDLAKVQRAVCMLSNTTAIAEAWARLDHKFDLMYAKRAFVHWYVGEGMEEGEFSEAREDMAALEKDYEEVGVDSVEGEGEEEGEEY

Substance: recombinant HYC2 (GST-HYC2 or HYC2-6XHis) (from UniProt Q9FMI8 1-448) (natural protein)
- Kd: 690 nM
